Kd data for 2 molecules are collected here from article PMC4877808.

For experiment [1], the target named is His-tagged recombinant TbHpHbR (T. brucei haptoglobin-hemoglobin complex receptor, without the signal sequence) (Trypanosoma brucei brucei GUTat 3.1). The experiment in a line: SPR; quantitative: Biacore X, His-tagged receptor immobilised on CM5 (rTcHpHbR 800 RU, rTbHpHbR 480 RU), 30 μl/min, free-Hb and free-Hp 0.0001-10 μM; Kd = dissociation rate constant / association rate constant. (In general: In SPR one partner is held on a chip, and binding of the other changes the refractive index at the surface.)

Experiment [2] deals with His-tagged recombinant TcHpHbR (T. congolense haptoglobin-hemoglobin complex receptor, without the signal sequence) (Trypanosoma congolense IL3000). The description is as above.

As usually defined, the Kd is a measure of binding affinity in units of concentration. In the case of “bovine hemoglobin (free-Hb), from bovine erythrocytes (from UniProt P01966 1-142; P02070 1-145) (ligand)”, the Kd in experiment [1] came to 5.3 µM; in experiment [2] it was 0.0205 µM.

B1: haptoglobin (free-Hp) (ligand)
chain 1: VETGSEATADSCPKAPEIANSHVEYSVRYQCDKYYKLHAGNGVYTFNNKQWINKDIGQQLPECEEDDSCPEPPKIENGYVEYLVRYQCKPYYTLRTCGDGVYTFNSKKQWINKNIGQKLPECEAVCGKPKHPVDQVQ
chain 2: IIGGSLDAKGSFPWQAKMVSQHNLISGATLINERWLLTTAKNLYLGHSSDKKAKDITPTLRLYVGKNQLVEVEKVVLHPDHSKVDIGLIKLRQKVPVNDKVMPICLPSKDYVKVGRVGYVSGWGRNENFNFTEHLKYVMLPVADQDKCVKHYEGVDAPKNKTAKSPVGVQPILNENTFCVGLSKYQDDTCYGDAGSAFVVHDKEDDTWYAAGILSFDKSCAVAEYGVYVKVTSILDWVRKTIANN
As to B1, the dissociation constant Kd in experiment [1] is 1.8 µM; in experiment [2], 0.22 µM.
